Laboratory results published in the supplement of paper PMC10567573.

B1: CDC14A (parent)
chain: LNLAMVYRYCCKLNKKLKSYSLSR

Variants of: B1
Assay: protein stability index of a GFP-peptide fusion (GPS, HEK-293T) (PSI 1-6); higher = more stable
Conditions: c terminus: a fixed tail appended
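Also: lentivirally expressed fusions sorted by FACS into six bins by GFP to DsRed ratio, PSI derived from sequencing read proportions per bin multiplied by bin number.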

For LNLAMCYRYCCKLNKKLKSYSLSR, which protein stability index is on record?
The protein stability index was 3.05.

For LNLAMLYRYCCKLNKKLKSYSLSR, which protein stability index is on record?
The protein stability index was 2.01.

Which protein stability index does the source give for LNLAMYYRYCCKLNKKLKSYSLSR here?
The protein stability index was 2.45.

With LNLAMNYRYCCKLNKKLKSYSLSR as the variant, how does the protein stability index read?
The protein stability index was 1.63.

Which protein stability index does the source give for LNLAMGYRYCCKLNKKLKSYSLSR here?
Its protein stability index is 1.73.

With LNLAMKYRYCCKLNKKLKSYSLSR as the variant, how does the protein stability index read?
The protein stability index was 2.39.

For LNLAMEYRYCCKLNKKLKSYSLSR, which protein stability index is on record?
The protein stability index was 1.76.

For LNLAMFYRYCCKLNKKLKSYSLSR, which protein stability index is on record?
The protein stability index was 5.59.

Which protein stability index does the source give for LNLAMVYRYCCPLNKKLKSYSLSR here?
The protein stability index was 2.87.

With LNLAMVYRYCCRLNKKLKSYSLSR as the variant, how does the protein stability index read?
The protein stability index was 2.13.

Which protein stability index does the source give for LNLAMVYRYCCYLNKKLKSYSLSR here?
The protein stability index was 2.51.

Which protein stability index does the source give for LNLAMVYRYCCNLNKKLKSYSLSR here?
Its protein stability index is 2.15.

For LNLAMVYRYCCTLNKKLKSYSLSR, which protein stability index is on record?
Its protein stability index is 2.55.

With LNLAMVYRYCCELNKKLKSYSLSR as the variant, how does the protein stability index read?
Its protein stability index is 1.5.

For LNLAMVYRYCCDLNKKLKSYSLSR, which protein stability index is on record?
The protein stability index was 1.81.

With LNLAMVYRYCCQLNKKLKSYSLSR as the variant, how does the protein stability index read?
The protein stability index was 3.04.

Which protein stability index does the source give for LNLAMVYRYCCHLNKKLKSYSLSR here?
Its protein stability index is 1.73.

With LNLAMVYRYCCALNKKLKSYSLSR as the variant, how does the protein stability index read?
The protein stability index was 2.1.

Which protein stability index does the source give for LNLAMVYRYCCKLNKYLKSYSLSR here?
Its protein stability index is 2.72.

Which protein stability index does the source give for LNLAMVYRYCCKLNKNLKSYSLSR here?
The protein stability index was 2.32.

Which protein stability index does the source give for LNLAMVYRYCCKLNKMLKSYSLSR here?
The protein stability index was 2.77.

With LNLAMVYRYCCKLNKHLKSYSLSR as the variant, how does the protein stability index read?
Its protein stability index is 3.33.

For LNLAMVYRYCCKLNKGLKSYSLSR, which protein stability index is on record?
Its protein stability index is 3.28.

With LNLAMVYRYCCKLNKDLKSYSLSR as the variant, how does the protein stability index read?
The protein stability index was 2.56.

For LNLAMVYRYCCKLNKRLKSYSLSR, which protein stability index is on record?
The protein stability index was 3.33.

With LNLAMVYRYCCKLNKELKSYSLSR as the variant, how does the protein stability index read?
Its protein stability index is 1.9.

For LNLAMVYRYCCKLNKKLKSYSGSR, which protein stability index is on record?
The protein stability index was 3.46.

Which protein stability index does the source give for LNLAMVYRYCCKLNKKLKSYSISR here?
The protein stability index was 3.6.

With LNLAMVYRYCCKLNKKLKSYSASR as the variant, how does the protein stability index read?
The protein stability index was 4.08.

Which protein stability index does the source give for LNLAMVYRYCCKLNKKLKSYSESR here?
The protein stability index was 1.85.

With LNLAMVYRYCCKLNKKLKSYSFSR as the variant, how does the protein stability index read?
Its protein stability index is 3.36.

Which protein stability index does the source give for LNLAMVYRYCCKLNKKLKSYSSSR here?
The protein stability index was 3.58.

Which protein stability index does the source give for LNLAMVYRYCCKLNKKLKSYSWSR here?
The protein stability index was 2.76.

Which protein stability index does the source give for LNLRMVYRYCCKLNKKLKSYSLSR here?
Its protein stability index is 3.08.

Which protein stability index does the source give for LNLTMVYRYCCKLNKKLKSYSLSR here?
The protein stability index was 2.15.

With LNLLMVYRYCCKLNKKLKSYSLSR as the variant, how does the protein stability index read?
Its protein stability index is 2.68.

With LNLCMVYRYCCKLNKKLKSYSLSR as the variant, how does the protein stability index read?
Its protein stability index is 3.81.

For LNLMMVYRYCCKLNKKLKSYSLSR, which protein stability index is on record?
The protein stability index was 3.12.

With LNLWMVYRYCCKLNKKLKSYSLSR as the variant, how does the protein stability index read?
Its protein stability index is 1.8.

Which protein stability index does the source give for LNLEMVYRYCCKLNKKLKSYSLSR here?
The protein stability index was 2.43.

For LNLQMVYRYCCKLNKKLKSYSLSR, which protein stability index is on record?
Its protein stability index is 4.07.

Which protein stability index does the source give for LNLPMVYRYCCKLNKKLKSYSLSR here?
Its protein stability index is 3.19.

Which protein stability index does the source give for LNLHMVYRYCCKLNKKLKSYSLSR here?
The protein stability index was 3.55.

With LNLIMVYRYCCKLNKKLKSYSLSR as the variant, how does the protein stability index read?
Its protein stability index is 2.37.

Which protein stability index does the source give for LNLSMVYRYCCKLNKKLKSYSLSR here?
Its protein stability index is 3.5.

Which protein stability index does the source give for LNLAPVYRYCCKLNKKLKSYSLSR here?
Its protein stability index is 3.2.

With LNLAWVYRYCCKLNKKLKSYSLSR as the variant, how does the protein stability index read?
The protein stability index was 3.48.

Which protein stability index does the source give for LNLAKVYRYCCKLNKKLKSYSLSR here?
The protein stability index was 3.87.

For LNLADVYRYCCKLNKKLKSYSLSR, which protein stability index is on record?
Its protein stability index is 3.92.

Which protein stability index does the source give for LNLALVYRYCCKLNKKLKSYSLSR here?
Its protein stability index is 2.57.

Which protein stability index does the source give for LNLAAVYRYCCKLNKKLKSYSLSR here?
The protein stability index was 2.67.

With LNLAQVYRYCCKLNKKLKSYSLSR as the variant, how does the protein stability index read?
The protein stability index was 1.56.

With LNLAMVYRYCCKLNKKLQSYSLSR as the variant, how does the protein stability index read?
Its protein stability index is 1.97.

With LNLAMVYRYCCKLNKKLLSYSLSR as the variant, how does the protein stability index read?
Its protein stability index is 1.71.

With LNLAMVYRYCCKLNKKLMSYSLSR as the variant, how does the protein stability index read?
Its protein stability index is 3.72.

Which protein stability index does the source give for LNLAMVYRYCCKLNKKLISYSLSR here?
The protein stability index was 2.79.

Which protein stability index does the source give for LNLAMVYRYCCKLNKKLTSYSLSR here?
Its protein stability index is 3.6.

Which protein stability index does the source give for LNLAMVYRYCCKLNKKLYSYSLSR here?
The protein stability index was 2.67.

For LNLAMVYRYCCKLNKKLDSYSLSR, which protein stability index is on record?
The protein stability index was 2.42.

With LNLAMVYRYCCKLNKKLKSYSLSQ as the variant, how does the protein stability index read?
The protein stability index was 4.16.

Which protein stability index does the source give for LNLAMVYRYCCKLNKKLKSYSLSN here?
Its protein stability index is 3.15.

Which protein stability index does the source give for LNLAMVYRYCCKLNKKLKSYSLSL here?
The protein stability index was 3.97.

Which protein stability index does the source give for LNLAMVYRYCCKLNKKLKSYSLSD here?
Its protein stability index is 3.64.

Which protein stability index does the source give for LNLAMVYRYCCKLNKKLKSYSLSM here?
The protein stability index was 2.37.

Which protein stability index does the source give for LNLAMVYRYCCKLNKKLKSYSLSG here?
The protein stability index was 2.21.

For LNLAMVYRYCCKLNKKLKSYSLSW, which protein stability index is on record?
Its protein stability index is 3.11.

Which protein stability index does the source give for LNLAMVYRYCCKLNKKLKSYSLSA here?
The protein stability index was 3.55.

For LNLAMVYRYCCKLNKKLKSYSLSS, which protein stability index is on record?
Its protein stability index is 2.19.

Which protein stability index does the source give for LNLAMVYRYCCKLNKKLKSYSLSF here?
The protein stability index was 2.97.

Which protein stability index does the source give for LNLAMVYRYCCKLNKKLKSYSLSP here?
Its protein stability index is 2.59.

With LNLAMVYRYCCKLNKKLKSYSLSV as the variant, how does the protein stability index read?
The protein stability index was 3.52.

Which protein stability index does the source give for LNLAMVYRYICKLNKKLKSYSLSR here?
Its protein stability index is 4.27.

With LNLAMVYRYTCKLNKKLKSYSLSR as the variant, how does the protein stability index read?
Its protein stability index is 2.32.

With LNLAMVYRYFCKLNKKLKSYSLSR as the variant, how does the protein stability index read?
Its protein stability index is 2.71.

Which protein stability index does the source give for LNLAMVYRYRCKLNKKLKSYSLSR here?
Its protein stability index is 1.59.

For LNLAMVYRYGCKLNKKLKSYSLSR, which protein stability index is on record?
Its protein stability index is 2.71.

Which protein stability index does the source give for LNLAMVYRYHCKLNKKLKSYSLSR here?
The protein stability index was 3.62.

Which protein stability index does the source give for LNLAMVYRYQCKLNKKLKSYSLSR here?
Its protein stability index is 2.8.

With LNLAMVYRYMCKLNKKLKSYSLSR as the variant, how does the protein stability index read?
Its protein stability index is 2.89.

Which protein stability index does the source give for LNLAMVYRYLCKLNKKLKSYSLSR here?
The protein stability index was 2.67.

Which protein stability index does the source give for LNLAMVYRYCCKLSKKLKSYSLSR here?
The protein stability index was 2.35.

With LNLAMVYRYCCKLYKKLKSYSLSR as the variant, how does the protein stability index read?
Its protein stability index is 3.35.

With LNLAMVYRYCCKLTKKLKSYSLSR as the variant, how does the protein stability index read?
The protein stability index was 3.41.

For LNLAMVYRYCCKLEKKLKSYSLSR, which protein stability index is on record?
Its protein stability index is 4.6.

With LNLAMVYRYCCKLPKKLKSYSLSR as the variant, how does the protein stability index read?
The protein stability index was 4.59.

Which protein stability index does the source give for LNLAMVYRYCCKLQKKLKSYSLSR here?
The protein stability index was 4.32.

For LNLAMVYRYCCKLRKKLKSYSLSR, which protein stability index is on record?
The protein stability index was 3.97.

For LNLAMVYRYCCKLVKKLKSYSLSR, which protein stability index is on record?
Its protein stability index is 1.78.

For LNRAMVYRYCCKLNKKLKSYSLSR, which protein stability index is on record?
Its protein stability index is 2.17.

For LNQAMVYRYCCKLNKKLKSYSLSR, which protein stability index is on record?
Its protein stability index is 2.61.

For LNCAMVYRYCCKLNKKLKSYSLSR, which protein stability index is on record?
Its protein stability index is 4.

Which protein stability index does the source give for LNGAMVYRYCCKLNKKLKSYSLSR here?
Its protein stability index is 4.11.

For LNEAMVYRYCCKLNKKLKSYSLSR, which protein stability index is on record?
The protein stability index was 2.32.

Which protein stability index does the source give for LNPAMVYRYCCKLNKKLKSYSLSR here?
Its protein stability index is 3.05.
